Conditions in all cases: both partners purified
Test [1] has as its target T1, RalA (residues 1–184, Q72L) (UniProt P11233 1-184, Q72L).
T1 construct: RalA small GTPase, residues 1-184, constitutively active Q72L; Loaded with [3H]GTP for SPA, with GMPPNP or GDP for fluorescence polarisation; also called RalA·GTP; [3H]-GTP RalA; source: expressed from pMAT10 as His6-MBP fusion, cleaved from its tag as described previously
T1 sequence (looked up): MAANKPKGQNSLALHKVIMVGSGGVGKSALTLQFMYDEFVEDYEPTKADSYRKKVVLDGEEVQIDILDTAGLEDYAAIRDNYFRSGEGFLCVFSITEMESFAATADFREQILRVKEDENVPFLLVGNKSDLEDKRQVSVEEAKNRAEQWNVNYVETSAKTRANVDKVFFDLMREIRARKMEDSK
The test is described as follows: fluorescence polarisation; 20 nM FAM-labeled peptide, varying concentrations of GMPPNP-bound small GTPases, 298 K, single-site model. For orientation: Polarisation of emitted light reports the rotation of a fluorescent probe.

Test [2] deals with T2, RalB (residues 1–185, Q72L) (UniProt P11234 1-185, Q72L).
T2 construct: Loaded with [3H]GTP for SPA, with GMPPNP for ITC, FP and crystallisation; also called RalB·GTP; source: expressed from pMAT10 as His6-MBP fusion, cleaved from its tag as described previously
T2 sequence (looked up): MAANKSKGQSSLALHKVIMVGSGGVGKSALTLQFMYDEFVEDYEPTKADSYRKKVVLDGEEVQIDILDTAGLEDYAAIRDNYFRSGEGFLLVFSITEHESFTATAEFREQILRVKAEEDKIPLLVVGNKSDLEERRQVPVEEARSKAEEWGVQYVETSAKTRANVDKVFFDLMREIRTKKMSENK
Described as above.

Test [3] has as its target T1, RalA (residues 1–184, Q72L). The experiment in a line: scintillation proximity assay (competition); GST-tagged Sec5 RBD immobilised on SPA beads, fixed [3H]-GTP RalA, peptides or RLIP76 RBD titrated; pure competition model, apparent Kd (Ki). A general note: Scintillation proximity formats need no separation of bound from free tracer.
The target is the same in test [4]. The test is described as follows: scintillation proximity assay (competition); His-tagged wild-type RLIP76 RBD immobilised on SPA beads, fixed [3H]GTP·RalA (100 nM) or [3H]GTP·RalB (250 nM), competitor RBD or peptide titrated; pure competition model, apparent Kd (Ki).

Positions of bridges follow the written chain, without caps; N, C: chain ends. Non-standard residues stand in square brackets, D forms with d. No end group written: not given here. S5 = C=CCCC[C@](C)(N)C(=O)O

In publication PMC7949049 (The Journal of Biological Chemistry, 2020) one finds Kd data, which are given here for four molecules.

B1: FAM-labeled HLR-sol stapled peptide (peptide)
chain: L[S5]KEH[S5]LWEELRIKTAERRKKREA-NH2
modifications: staple 2-6; not fully specified (N-terminus); also: 5-carboxyfluorescein (FAM) label, site not given here
As for B1, the Kd in test [1] was determined as 16.6 µM; in test [2], 21.1 µM.

B2: HLR-sol stapled peptide (peptide)
chain: L[S5]KEH[S5]LWEELRIKTAERRKKREA-NH2
modifications: staple 2-6; N-terminus assumed
SMILES: CC[C@H](C)[C@H](NC(=O)[C@H](CCCNC(=N)N)NC(=O)[C@H](CC(C)C)NC(=O)[C@H](CCC(=O)O)NC(=O)[C@H](CCC(=O)O)NC(=O)[C@H](Cc1c[nH]c2ccccc12)NC(=O)[C@H](CC(C)C)NC(=O)[C@]1(C)CCCC=CCCC[C@](C)(NC(=O)[C@@H](N)CC(C)C)C(=O)N[C@@H](CCCCN)C(=O)N[C@@H](CCC(=O)O)C(=O)N[C@@H](Cc2c[nH]cn2)C(=O)N1)C(=O)N[C@@H](CCCCN)C(=O)N[C@H](C(=O)N[C@@H](C)C(=O)N[C@@H](CCC(=O)O)C(=O)N[C@@H](CCCNC(=N)N)C(=O)N[C@@H](CCCNC(=N)N)C(=O)N[C@@H](CCCCN)C(=O)N[C@@H](CCCCN)C(=O)N[C@@H](CCCNC(=N)N)C(=O)N[C@@H](CCC(=O)O)C(=O)N[C@@H](C)C(N)=O)[C@@H](C)O
Consider B2, for which the Kd came to 1.74 µM in test [3] and 2.97 µM in test [4].

B3: L-sol stapled peptide (peptide)
chain: L[S5]KEE[S5]LWEELRIKTAEKRKKREA-NH2
modifications: staple 2-6; N-terminus assumed
SMILES: CC[C@H](C)[C@H](NC(=O)[C@H](CCCNC(=N)N)NC(=O)[C@H](CC(C)C)NC(=O)[C@H](CCC(=O)O)NC(=O)[C@H](CCC(=O)O)NC(=O)[C@H](Cc1c[nH]c2ccccc12)NC(=O)[C@H](CC(C)C)NC(=O)[C@]1(C)CCCC=CCCC[C@](C)(NC(=O)[C@@H](N)CC(C)C)C(=O)N[C@@H](CCCCN)C(=O)N[C@@H](CCC(=O)O)C(=O)N[C@@H](CCC(=O)O)C(=O)N1)C(=O)N[C@@H](CCCCN)C(=O)N[C@H](C(=O)N[C@@H](C)C(=O)N[C@@H](CCC(=O)O)C(=O)N[C@@H](CCCCN)C(=O)N[C@@H](CCCNC(=N)N)C(=O)N[C@@H](CCCCN)C(=O)N[C@@H](CCCCN)C(=O)N[C@@H](CCCNC(=N)N)C(=O)N[C@@H](CCC(=O)O)C(=O)N[C@@H](C)C(N)=O)[C@@H](C)O
Turning to B3, the Kd came out at 1.81 µM in test [3] and 3.09 µM in test [4].

B4: FAM-labeled L-sol stapled peptide (peptide)
chain: L[S5]KEE[S5]LWEELRIKTAEKRKKREA-NH2
modifications: staple 2-6; not fully specified (N-terminus); also: 5-carboxyfluorescein (FAM) label, site not given here
B4: the results for the Kd in test [1] and in test [2] were 19.8 µM and 24.4 µM, respectively.
